The source of these data is patent publication US20210221891A1 (NANJING LEGEND BIOTECH, published 2021).

Numbering of substitutions follows the chain as printed.

The target in this test is human PD-L1 expressed on CHO-K1 cells (human, UniProt Q9NZQ7 19-290). Kind of test: cell-based or functional assay.
Chain of human PD-L1 expressed on CHO-K1 cells (Q9NZQ7 19-290): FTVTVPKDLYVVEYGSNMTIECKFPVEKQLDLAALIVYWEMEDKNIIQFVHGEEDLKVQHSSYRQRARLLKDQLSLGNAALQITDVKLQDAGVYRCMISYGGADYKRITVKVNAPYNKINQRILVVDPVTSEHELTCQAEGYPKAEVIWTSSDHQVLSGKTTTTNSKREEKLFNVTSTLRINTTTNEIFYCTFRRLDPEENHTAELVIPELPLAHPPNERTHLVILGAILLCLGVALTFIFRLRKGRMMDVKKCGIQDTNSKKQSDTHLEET

B1: AS06750 sdAb (VHH)
VHH: AVQLVESGGGLVQAGDSLRLSCTASGRTFLTYAVGWFRQAPGTEREFVAGIRWSGGYTDYADSVKGRFTISRDNAKNTVYLQMNSLKPEDTAVYYCAAHRTIATIPEKYEYEYWGQGTQVTVSS
Consider B1, for which the “EC50 of PD-L1- based blockade assay for sdAbs” value (shortened to “EC50”) is 33.6 nM.

B2: AS06617 sdAb (VHH)
VHH: DVQLVESGGGLVQAGDSLRLSCAASGRTFISYAVGWFRQAPGSEREFVAGIRWNGIHTDYADSVKGRFTISRDNAKNTVTLEMTSLKPEDTAVYYCAAHRTIATIPEKYEYEYWGQGTQVTVSS
Regarding B2, the “EC50” value was 63.8 nM.

B3: AS06682 sdAb (VHH)
VHH: B1 VHH with T31S, G56E, Y57H, D62A, R100T, E107K
On to B3, for which the “EC50” value came out at 42 nM.

B4: AS12003 sdAb (VHH)
VHH: B1 VHH with A1E, T23A, T31S, Y57S, I105V, E107N, E112D, Y113T
For B4, the “EC50” value came to 96.2 nM.

B5: AS06775 sdAb (VHH)
VHH: B1 VHH with A1Q, T23A, Y32L, G56S, Y57G, R100T, Q116R
In the case of B5, the “EC50” value worked out at 75.5 nM.

B6: AS06618 sdAb (VHH)
VHH: B1 VHH with A1E, G10R, Q13R, T23A, T31S, D62E, S63A
Take B6: the “EC50” value is 44.5 nM.

B7: AS06686 sdAb (VHH)
VHH: AVQLVESGGGLVQAGDSLRLACAASGRTFLTYALGWFRQAPGKEREFVAGVSWSGSSTKYADSVKGRFTISRDNAKNTVYMQMNSLKPEDTAVYYCAAQISAIVPISAHEYQYWGQGTQVTVSS
For the molecule B7, the “EC50” value was 352 nM.

B8: AS11947 sdAb (VHH)
VHH: DVQLVESGGGLVQAGDSLRLTCSASGRTFISYAVGWFRQAPGTEREFVAGIRWNGISTDYTDSVKGRFTISRDNAKNTVYLQMNSLKPEDTAIYYCAAHRTIATIPNKYEYDHWGQGTQVTVSS
Turning to B8, the “EC50” value turned out to be 77.2 nM.

B9: AS11948 sdAb (VHH)
VHH: EVQLVESGGGLVQAGDSLRLSCVASGRTFVTYGMGWFRQAPGKEREFVAAINWSGSMTSYGDSVKGRFAISRDNAKNTVYLQMNSLKPEDTAVYYCAAALGAVVYTTREPYTYWGRGTQVTVSS
Turning to B9, the “EC50” value amounted to 25.2 nM.

B10: AS06778 sdAb (VHH)
VHH: QVQLVESGGGLVQAGGSLKLSCAASGRTFITYAMGWFRQAPGKERELVAAISWSGSSTYSADSVKGRFTISRDNAKNTVYLQMNSLKPEDTAVYYCAAEVSARTGEHLPKLMGDYWGQGTQVTVSS
Take B10: the “EC50” value was found to be 20.1 nM.

B11: AS06628 sdAb (VHH)
VHH: QVQLVESGGGLVQAGGSLRLSCAASGRTFITYAIGWFRQAPGKEREFVTAINWSGSMTSYADSVKGRFTISRDNNKNMVYLQMNSLKPEDTAVYYCAAHRGAIAPMTQSVYDYWGQGTQVTVSS
On to B11, for which the “EC50” value was 24.2 nM.

B12: AS06791 sdAb (VHH)
VHH: B11 VHH with N75A, M78T, M83I, S85G, P88S
As for B12, the “EC50” value came out at 36.5 nM.

B13: AS06730 sdAb (VHH)
VHH: B11 VHH with T49S, N75A, M78T, S85G, M106I, T107A, D112T, Y113N
B13: the “EC50” value came to 17.2 nM.

B14: AS06703 sdAb (VHH)
VHH: B11 VHH with Q1E, Q13R, M78T, V93L, R100L, T107S
Consider B14, for which the “EC50” value was 15 nM.
